Where a chain is given by its changes, count along the chain named. In names and notes the source's numbering stands.
What was measured:
[1] = target: T1, human PD-L1 on cells (PHA-activated human T cells); PD-L1-transfected CHO-S cells; A375 melanoma cells; … (human, UniProt Q9NZQ7 19-290); assay: flow cytometry on PHA-activated human CD3+ T cells, FITC-labeled anti-human IgG Fcγ, MFI
T1 construct: whole, on cells; also called PD-L1 expressing T cells; PD-L1 expressing CHO-S cells
Protocol: Human T cells were isolated from PBMC using MagniSortTM Human T Cell Enrichment Kit (eBioscience). Isolated T cells were activated by 5 μg/mL phytohemagglutinin (PHA) for 3 days to stimulate the PD-L1 expression. Activated T cells were collected and incubated in FACS buffer (PBS with 2% FBS) with human Fc blocker (eBioscience) for 20 minutes at 4° C. Binding of anti-PD-L1 monoclonal antibody was assessed by incubating the activated T cells with the serial-diluted antibodies in FACS buffer. The cells were washed with flow buffer and the binding was detected with a FITC-labeled rabbit anti-human IgG FcγAb. Cells were also stained with mouse anti-human CD3 PE-Cy7 (eBioscience) for gating CD3-positive T cells. Flow cytometric analyses were performed using the Cytomics FC 500 (Beckman Coulter Inc.).

[2] = target: T1, human PD-L1 on cells (PHA-activated …); assay: flow cytometry blocking assay: PD-L1 expressing CHO-S cells incubated with antibody, then biotin-labeled PD-1-Fc and streptavidin-PE; MFI of bound PD-1
Protocol: PD-L1 expressing CHO-S cells were suspended in FACS buffer (PBS with 4% FBS). Various concentrations of tested antibodies were added to the cell suspension (3.5E5 cells/well) and incubated at 4° C. for 30 minutes. […] The cells were washed and then stained with streptavidin-PE at 4° C. for 30 minutes. Flow cytometric analyses were performed using the Cytomics FC 500 (Beckman Coulter Inc.).
Anti-PD-L1 reference antibody and Avastin were used as the positive and negative control, respectively.

human PD-L1 ECD-His [3] = target: T2, human PD-L1 ECD-His (human, UniProt Q9NZQ7 19-238); assay: SPR, 25 C, antibody captured by anti-human IgG Fc, hPD-L1_ECD-His analyte, 1:1 fit
T2 construct: extracellular domain; Analyte in all SPR and BLI runs; also called hPD-L1_ECD-His; hPD-L1 ECD-His; not shown: His tag
Protocol: Experiments were carried out at 25° C., and measurements were made with serial dilutions of hPD-L1_ECD-His from 55.4 nM to 11.1 nM passing over the captured antibodies in HBS-P+ buffer supplemented with 0.1% (w/v) BSA with a flow rate of […]. All data were analyzed with the evaluation software and curves were fit with a 1:1 Langmuir binding model. Data are representative of two independent experiments performed in duplicate.

[4] = target: T3, recombinant human PD-L1/Fc fusion protein (human, UniProt Q9NZQ7 19-238); assay: ELISA: human PD-L1/Fc coated (15 ng/well), serially diluted antibody, HRP-conjugated secondary antibody, TMB, A450
T3 construct: also called hPD-L1 ECD-Fc; not shown: Fc part
Protocol: ELISA assays were performed to assess the binding of selected antibodies to recombinant human PD-L1/Fc fusion proteins. Fifteen nanograms per well of human PD-L1/Fc proteins were coated on 96-well EIA microplate overnight at 4° C. After blocking with 5% skim milk, serially diluted antibodies were added and incubated at RT for 1 hour. The unbound antibodies were removed and wells were washed with PBST twice. The HRP-conjugated secondary antibody was added to the wells, and, following an incubation, excess secondary antibody was washed away. TMB was added to the wells, and following incubation, the reaction was stopped, and HRP activity was measured by monitoring the increase in absorbance at 450 nm.

human PD-L1 ECD-His [5] = target: T2, human PD-L1 ECD-His; assay: BLI, ratio of KD to parental PL3#7-19
Protocol: (§1) Briefly, black 96-well plate was prepared with columns containing 200 μL/well of reagents required for determination of affinity. In general, Octet anti-human-Fc sensors were first placed in wells containing 1×Kinetics Buffer (PBS, 0.1% BSA, 0.02% Tween-20, pH 7.4) for 180 seconds to establish a baseline. Sensors were then transferred to wells containing […] anti-PD-L1 variants for 600 seconds to load the anti-human-Fc tips. Sensors were then placed in fresh 1×Kinetics Buffer for 180 seconds to establish a baseline. Association was then measured by incubating the sensors for 3 minutes in wells containing hPD-L1-His followed by transferring to wells containing 1×Kinetics Buffer for 10 minutes to measure dissociation. Sensors were then regenerated by 3X5 second incubations in Regeneration Buffer (10 mM Glycine, pH 1.5) followed by a 5 second incubation in 1×Kinetics Buffer each time. Regeneration was repeated before measurement of each association/dissociation cycle. […] All data were analyzed with Octet Data Analysis Software v.9.0 and representative of two independent experiments performed in duplicate.
(§2) All the data are representative of two independent experiments performed in duplicate.

[6] = target: T1, human PD-L1 on cells (PHA-activated …); assay: flow cytometry on PD-L1 transfected CHO-S cells, anti-human IgG Fc-FITC, MFI
Protocol: Binding of tested de-glycosylated variants was assessed by incubating the PD-L1 expressing CHO-S cells (2E5 cells/well) with the serial-diluted antibodies in FACS buffer (PBS with 1% FBS) at 4° C. for 30 minutes. These cells were washed with flow buffer and then stained with anti-human IgG Fc-FITC (1:500×) at 4° C. for 30 minutes to detect antibody binding on the cell surface. Flow cytometric analyses were performed using CytoFlex (Beckman Coulter Inc.).

human PD-L1 ECD-His [7] = target: T2, human PD-L1 ECD-His; assay: BLI Octet RED96, antibody on AHC anti-human-Fc sensor, hPD-L1-His analyte, 1:1 fit
Protocol: as §1, §2

human PD-L1 ECD-His [8] = target: T2, human PD-L1 ECD-His; assay: BLI Octet RED96, biotinylated antibody on SA sensor, hPD-L1-His analyte, 1:1 fit
Protocol: (§3) Briefly, black 96-well plate was prepared with columns containing 200 μL/well of reagents required for determination of affinity. In general, Octet SA sensors were first placed in wells containing 1×Kinetics Buffer (PBS, 0.1% BSA, 0.02% Tween-20, pH 7.4) for 180 seconds to establish a baseline. […] Sensors were then regenerated by 3×5 second incubations in Regeneration Buffer (10 mM Glycine, pH 1.5) followed by a 5 second incubation in 1×Kinetics Buffer each time. Regeneration was repeated before measurement of each association/dissociation cycle. Sensors were then placed in fresh 1×Kinetics Buffer for 180 seconds to establish a baseline. Association was then measured by incubating the sensors for 5 minutes in wells containing hPD-L1-His followed by transferring to wells containing 1×Kinetics Buffer for 10 minutes to measure dissociation. Kinetics (ka, kd, and […] were measured by global fitting four association/dissociation cycles of data obtained from 1:3 serial dilutions of hPD-L1-His from 38.28 nM to 1.42 nM (one association/dissociation cycle for one concentration) with a 1:1 Langmuir binding model. All data were analyzed with Octet Data Analysis Software v.9.0 and representative of two independent experiments performed in duplicate.
as §2

[9] = target: T1, human PD-L1 on cells (PHA-activated …); assay: flow cytometry on PHA-activated human T cells, biotin-labeled anti-human IgG Fcγ and streptavidin-PE, MFI
[10] = target: T1, human PD-L1 on cells (PHA-activated …); assay: flow cytometry on A375 human melanoma cells, biotin-labeled anti-human IgG Fcγ and streptavidin-PE, MFI
[11] = target: T4, recombinant cynomolgus monkey PD-L1_ECD Fc-fusion protein (Sino Biological Inc.) (cynomolgus monkey, UniProt G7PSE7 19-238); assay: ELISA: cynomolgus monkey PD-L1_ECD/Fc coated (9 ng/well), peroxidase-labeled goat anti-human IgG F(ab)'2, TMB, OD450
T4 construct: Bought
Protocol: The recombinant cynomolgus monkey PD-L1_ECD Fc-fusion proteins were purchased from Sino Biological Inc. PD-L1_ECD/Fc (9 ng per well) were immobilized onto 96-well assay plat by incubating overnight at 4° C. Nonspecific binding sites were blocked using 5% skim milk in PBS for one hour at room temperature. After washing plates three times with PBST, indicated concentrations of anti-PD-L1 antibodies and HLX01 (negative control) were incubated with the immobilized proteins for one hour at room temperature. The plates were washed three times with PBST and then incubated for one hour at room temperature with peroxidase-labeled goat anti-human IgG F(ab)′2 (Jackson ImmunoResearch Laboratories) diluted 1/10,000 in PBS. After washing, plates were developed using TMB (eBioscience). The absorbance was read at the wavelength of 450 nm by Varioskan LUX microplate reader (Thermo Scientific).
HLX01 (anti-CD20 mAb) was used as the negative control.

[12] = target: T1, human PD-L1 on cells (PHA-activated …); assay: flow cytometry on NCI-H292 human NSCLC cells, biotin-labeled anti-human IgG Fcγ and streptavidin-PE, MFI
human PD-L1 ECD-His [13] = target: T2, human PD-L1 ECD-His; assay: BLI, ratio of KD to ref-1
Protocol: as §3, §2

T3 sequence (Q9NZQ7 19-238 limits assumed): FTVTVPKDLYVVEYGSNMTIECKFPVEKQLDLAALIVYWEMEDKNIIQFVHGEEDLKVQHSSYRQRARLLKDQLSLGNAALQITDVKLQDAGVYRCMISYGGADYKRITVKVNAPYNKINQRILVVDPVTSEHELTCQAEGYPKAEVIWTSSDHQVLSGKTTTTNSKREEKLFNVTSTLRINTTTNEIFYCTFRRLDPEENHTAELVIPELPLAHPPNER
T2 sequence (Q9NZQ7 19-238): as the sequence (Q9NZQ7 19-238 limits assumed) above
T1 sequence (Q9NZQ7 19-290): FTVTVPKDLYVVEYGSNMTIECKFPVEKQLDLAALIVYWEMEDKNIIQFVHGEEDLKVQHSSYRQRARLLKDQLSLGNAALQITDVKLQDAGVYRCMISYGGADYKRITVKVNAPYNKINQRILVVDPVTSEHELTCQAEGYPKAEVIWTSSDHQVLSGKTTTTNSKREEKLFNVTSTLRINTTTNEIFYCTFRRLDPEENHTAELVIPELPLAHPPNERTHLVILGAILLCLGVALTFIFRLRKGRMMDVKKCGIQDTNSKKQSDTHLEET
T4 sequence (G7PSE7 entry or part of it limits assumed): as the sequence (Q9NZQ7 19-238 limits assumed) above, with A33T, A34S, S62N, R68Q, Q82R, F173L, T185A, T192I, H215L counted along it

B1: PL12 (full-length, N297A mutant human IgG1) (antibody, V domains shown)
VH: QVQLVQSGAEVKKPGSSVKVSCKASGGTFSSYAISWVRQAPGQGLEWMGRIIPILGIANYAQKFQGRVTITADKSTSTAYMELSSLRSEDTAVYYCARGIGSYSFGAFDIWGQGTMVTVSS
VL: QSVLTQPPSVSGAPGQRVTISCTRSSSNIGAGHDVHWYQQLPGTAPKLLIYGNSNRPSGVPDRFSGSKSGTSASLAITGLQAEDGADYYCQSYDSSLTGVVFGGGTKLTVLG
EC50 (read off the curve) [1]: ~0.03 µg/mL | IC50 (read off the curve) [2]: ~0.2 µg/mL | Kd (human PD-L1 ECD-His [3]): 6.68 nM | koff (human PD-L1 ECD-His [3]): 0.00267 s⁻¹ | kon (human PD-L1 ECD-His [3]): 416000 M⁻¹ s⁻¹ | EC50 (read off the curve) [4]: ~0.03 µg/mL

B2: PL3#7-19 deglyco1 mtIgG1 (antibody, V domains shown)
VH: B1 VH with A33P, G99S, I100R, G101D, S102G, S104A, I110V, M116L
VL: QSVVTQPPPVSGAPGQRVTISCTGSSSNIGGGYDVHWYQQLPGTAPKLLIYGNSNRPSGVPDRFSGSKSGTSASLAITGLQAEDEADYYCQTYDSSLSATVVFGGGTKLTVLG
notes: N297A mutant human IgG1; also called PL3#7-19 deglycol
Fold Difference (against parental variant) (human PD-L1 ECD-His [5]): 1.48 fold | EC50 (read off the curve) [6]: ~0.2 µg/mL | Kd (human PD-L1 ECD-His [7]): 0.417 nM | koff (human PD-L1 ECD-His [7]): 0.000162 s⁻¹ | kon (human PD-L1 ECD-His [7]): 384000 M⁻¹ s⁻¹

B3: PL3 (full-length, N297A mutant human IgG1) (antibody, V domains shown)
VH: B1 VH with A33T, G99S, I100R, G101D, S102G, M116L
VL: B2 VL with G31A, T92S, T100P
EC50 (read off the curve) [1]: ~0.04 µg/mL | IC50 (read off the curve) [2]: ~0.1 µg/mL | Kd (human PD-L1 ECD-His [3]): 11.9 nM | koff (human PD-L1 ECD-His [3]): 0.0041 s⁻¹ | kon (human PD-L1 ECD-His [3]): 348000 M⁻¹ s⁻¹ | EC50 (read off the curve) [4]: ~0.02 µg/mL

B4: PL3#7-54 mtIgG1 (antibody, V domains shown)
VH: B1 VH with A33P, N59D, G99S, I100R, G101P, S102G, S104A, M116L
VL: B2 VL with G31Q, G52A, T100R
modifications: Antibody was biotinylated (NHS-PEG4-biotin, sites not specified) for the Octet assay of Table 11.
notes: N297A mutant human IgG1
Kd (human PD-L1 ECD-His [8]): 0.772 nM | koff (human PD-L1 ECD-His [8]): 0.000228 s⁻¹ | kon (human PD-L1 ECD-His [8]): 307000 M⁻¹ s⁻¹ | EC50 (read off the curve) [9]: ~4 ng/mL | EC50 (read off the curve) [10]: ~1 ng/mL | EC50 (read off the curve) [11]: ~0.05 µg/mL | EC50 (read off the curve) [12]: ~8 ng/mL | Improvement over ref-1 (human PD-L1 ECD-His [13]): 3.19 fold

B5: PL3#7-19 deglyco2 mtIgG1 (antibody, V domains shown)
VH: B1 VH with A33P, G99S, I100R, G101D, S102G, S104A, I110V, M116L
VL: B2 VL with N53Q, N55T
notes: N297A mutant human IgG1
Fold Difference (against parental variant) (human PD-L1 ECD-His [5]): 1.68 fold | EC50 (read off the curve) [6]: ~0.2 µg/mL | Kd (human PD-L1 ECD-His [7]): 0.369 nM | koff (human PD-L1 ECD-His [7]): 0.000151 s⁻¹ | kon (human PD-L1 ECD-His [7]): 415000 M⁻¹ s⁻¹

B6: PL2 (full-length, N297A mutant human IgG1) (antibody, V domains shown)
VH: EVQLVQSGGGLVKPGGSLRLSCAASGFTFSSYTMNWVRQAPGKGLEWVSSISSGSDYLYYADSVKGRFTISRDNAKNSLYLQMNSLRAEDTAVYYCARNELRWYPQAGAFDIWGQGTMVTVSS
VL: QSVVTQPPSMSAAPGQNVTISCSGSSSYIESSYVSWYQQLPGTAPRLLIYDDDMRPSGIPDRFSGSKSGTSATLAITGLQTGDEADYYCEIWDSGLGGVFGGGTKLTVLS
EC50 (read off the curve) [1]: ~0.005 µg/mL | IC50 (read off the curve) [2]: ~0.05 µg/mL | Kd (human PD-L1 ECD-His [3]): 8.72 nM | koff (human PD-L1 ECD-His [3]): 0.0039 s⁻¹ | kon (human PD-L1 ECD-His [3]): 438000 M⁻¹ s⁻¹ | EC50 (read off the curve) [4]: ~0.009 µg/mL

B7: anti-PD-L1 ref-2 (IgG2) (antibody, V domains shown)
VH: EVQLVESGGGLVKPGGSLRLSCAASGFTFSSYGMSWVRQAPGKGLEWVATINSGGSNTYYPDSLKGRFTISRDNAKNSLYLQMNSLRAEDTAVYYCARHDGGAMDYWGQGTTVTVSS
VL: DIQMTQSPSSLSASVGDRVTITCRASESIYSYLAWYQQKPGKAPKLLVYNTKTLPEGVPSRFSGSGSGTDFTLTISSLQPEDFATYYCQHHYGTPPWTFGQGTRLEIK
EC50 (read off the curve) [9]: ~4 ng/mL | EC50 (read off the curve) [1]: ~0.005 µg/mL | EC50 (read off the curve) [10]: ~2 ng/mL | IC50 (read off the curve) [2]: ~0.2 µg/mL | EC50 (read off the curve) [12]: ~10 ng/mL
